Patent US12630600B2 (MEDIMMUNE LIMITED, priority 2022, dated 2026)
Starred links: 1 amine or outer side, 2 acyl side, 3 side chain; linkers in the order of their positions; H or OH if unused. Non-standard residues stand in square brackets, D forms with d. Groups on a side chain read outwards from the residue. No end group written: not given here. *: point of attachment. C20 diacid = O=C(O)CCCCCCCCCCCCCCCCCCC(=O)*; C18 diacid = O=C(O)CCCCCCCCCCCCCCCCC(=O)*; γGlu = O=C(O)[C@H](CCC(=O)[*:2])N[*:1]; αMeF = C[C@](N)(Cc1ccccc1)C(=O)O; AEEA = NCCOCCOCC(=O)O; Aib = CC(C)(N)C(=O)O

B1: Peptide 488 (peptide)
peptide: H[Aib]QGTFTSDVSK[αMeF]LDTK([AEEA-AEEA-γGlu-C20 diacid])RARDFVQWLL[Aib]TE-OH
modifications: N-terminus assumed
SMILES: CC(C)C[C@H](NC(=O)[C@H](Cc1c[nH]c2ccccc12)NC(=O)[C@H](CCC(N)=O)NC(=O)[C@@H](NC(=O)[C@H](Cc1ccccc1)NC(=O)[C@H](CC(=O)O)NC(=O)[C@H](CCCNC(=N)N)NC(=O)[C@H](C)NC(=O)[C@H](CCCNC(=N)N)NC(=O)[C@H](CCCCNC(=O)COCCOCCNC(=O)COCCOCCNC(=O)CC[C@H](NC(=O)CCCCCCCCCCCCCCCCCCC(=O)O)C(=O)O)NC(=O)[C@@H](NC(=O)[C@H](CC(=O)O)NC(=O)[C@H](CC(C)C)NC(=O)[C@](C)(Cc1ccccc1)NC(=O)[C@H](CCCCN)NC(=O)[C@H](CO)NC(=O)[C@@H](NC(=O)[C@H](CC(=O)O)NC(=O)[C@H](CO)NC(=O)[C@@H](NC(=O)[C@H](Cc1ccccc1)NC(=O)[C@@H](NC(=O)CNC(=O)[C@H](CCC(N)=O)NC(=O)C(C)(C)NC(=O)[C@@H](N)Cc1c[nH]cn1)[C@@H](C)O)[C@@H](C)O)C(C)C)[C@@H](C)O)C(C)C)C(=O)N[C@@H](CC(C)C)C(=O)NC(C)(C)C(=O)N[C@H](C(=O)N[C@@H](CCC(=O)O)C(=O)O)[C@@H](C)O
B2: Peptide 491 (peptide)
peptide: H[Aib]QGTFTSDVSK[αMeF]LDTK([AEEA-AEEA-γGlu-C18 diacid])RARDFVRWLL[Aib]TE-OH
modifications: N-terminus assumed
SMILES: CC(C)C[C@H](NC(=O)[C@H](Cc1c[nH]c2ccccc12)NC(=O)[C@H](CCCNC(=N)N)NC(=O)[C@@H](NC(=O)[C@H](Cc1ccccc1)NC(=O)[C@H](CC(=O)O)NC(=O)[C@H](CCCNC(=N)N)NC(=O)[C@H](C)NC(=O)[C@H](CCCNC(=N)N)NC(=O)[C@H](CCCCNC(=O)COCCOCCNC(=O)COCCOCCNC(=O)CC[C@H](NC(=O)CCCCCCCCCCCCCCCCC(=O)O)C(=O)O)NC(=O)[C@@H](NC(=O)[C@H](CC(=O)O)NC(=O)[C@H](CC(C)C)NC(=O)[C@](C)(Cc1ccccc1)NC(=O)[C@H](CCCCN)NC(=O)[C@H](CO)NC(=O)[C@@H](NC(=O)[C@H](CC(=O)O)NC(=O)[C@H](CO)NC(=O)[C@@H](NC(=O)[C@H](Cc1ccccc1)NC(=O)[C@@H](NC(=O)CNC(=O)[C@H](CCC(N)=O)NC(=O)C(C)(C)NC(=O)[C@@H](N)Cc1c[nH]cn1)[C@@H](C)O)[C@@H](C)O)C(C)C)[C@@H](C)O)C(C)C)C(=O)N[C@@H](CC(C)C)C(=O)NC(C)(C)C(=O)N[C@H](C(=O)N[C@@H](CCC(=O)O)C(=O)O)[C@@H](C)O
B3: Peptide 490 (peptide)
peptide: H[Aib]QGTFTSDVSK[αMeF]LDTK([AEEA-AEEA-γGlu-C20 diacid])RARDFVQWLL[Aib]TE-NH2
modifications: N-terminus assumed
SMILES: CC(C)C[C@H](NC(=O)[C@H](Cc1c[nH]c2ccccc12)NC(=O)[C@H](CCC(N)=O)NC(=O)[C@@H](NC(=O)[C@H](Cc1ccccc1)NC(=O)[C@H](CC(=O)O)NC(=O)[C@H](CCCNC(=N)N)NC(=O)[C@H](C)NC(=O)[C@H](CCCNC(=N)N)NC(=O)[C@H](CCCCNC(=O)COCCOCCNC(=O)COCCOCCNC(=O)CC[C@H](NC(=O)CCCCCCCCCCCCCCCCCCC(=O)O)C(=O)O)NC(=O)[C@@H](NC(=O)[C@H](CC(=O)O)NC(=O)[C@H](CC(C)C)NC(=O)[C@](C)(Cc1ccccc1)NC(=O)[C@H](CCCCN)NC(=O)[C@H](CO)NC(=O)[C@@H](NC(=O)[C@H](CC(=O)O)NC(=O)[C@H](CO)NC(=O)[C@@H](NC(=O)[C@H](Cc1ccccc1)NC(=O)[C@@H](NC(=O)CNC(=O)[C@H](CCC(N)=O)NC(=O)C(C)(C)NC(=O)[C@@H](N)Cc1c[nH]cn1)[C@@H](C)O)[C@@H](C)O)C(C)C)[C@@H](C)O)C(C)C)C(=O)N[C@@H](CC(C)C)C(=O)NC(C)(C)C(=O)N[C@H](C(=O)N[C@@H](CCC(=O)O)C(N)=O)[C@@H](C)O
B4: Peptide 486 (peptide)
peptide: H[Aib]QGTFTSDVSK[αMeF]LDLK([AEEA-AEEA-γGlu-C20 diacid])RAQDFVRWLL[Aib]E-OH
modifications: N-terminus assumed
SMILES: CC(C)C[C@H](NC(=O)[C@H](CC(=O)O)NC(=O)[C@H](CC(C)C)NC(=O)[C@](C)(Cc1ccccc1)NC(=O)[C@H](CCCCN)NC(=O)[C@H](CO)NC(=O)[C@@H](NC(=O)[C@H](CC(=O)O)NC(=O)[C@H](CO)NC(=O)[C@@H](NC(=O)[C@H](Cc1ccccc1)NC(=O)[C@@H](NC(=O)CNC(=O)[C@H](CCC(N)=O)NC(=O)C(C)(C)NC(=O)[C@@H](N)Cc1c[nH]cn1)[C@@H](C)O)[C@@H](C)O)C(C)C)C(=O)N[C@@H](CCCCNC(=O)COCCOCCNC(=O)COCCOCCNC(=O)CC[C@H](NC(=O)CCCCCCCCCCCCCCCCCCC(=O)O)C(=O)O)C(=O)N[C@@H](CCCNC(=N)N)C(=O)N[C@@H](C)C(=O)N[C@@H](CCC(N)=O)C(=O)N[C@@H](CC(=O)O)C(=O)N[C@@H](Cc1ccccc1)C(=O)N[C@H](C(=O)N[C@@H](CCCNC(=N)N)C(=O)N[C@@H](Cc1c[nH]c2ccccc12)C(=O)N[C@@H](CC(C)C)C(=O)N[C@@H](CC(C)C)C(=O)NC(C)(C)C(=O)N[C@@H](CCC(=O)O)C(=O)O)C(C)C
B5: Peptide 487 (peptide)
peptide: H[Aib]QGTFTSDVSK[αMeF]LDTK([AEEA-AEEA-γGlu-C18 diacid])RARDFVQWLL[Aib]TE-OH
modifications: N-terminus assumed
SMILES: CC(C)C[C@H](NC(=O)[C@H](Cc1c[nH]c2ccccc12)NC(=O)[C@H](CCC(N)=O)NC(=O)[C@@H](NC(=O)[C@H](Cc1ccccc1)NC(=O)[C@H](CC(=O)O)NC(=O)[C@H](CCCNC(=N)N)NC(=O)[C@H](C)NC(=O)[C@H](CCCNC(=N)N)NC(=O)[C@H](CCCCNC(=O)COCCOCCNC(=O)COCCOCCNC(=O)CC[C@H](NC(=O)CCCCCCCCCCCCCCCCC(=O)O)C(=O)O)NC(=O)[C@@H](NC(=O)[C@H](CC(=O)O)NC(=O)[C@H](CC(C)C)NC(=O)[C@](C)(Cc1ccccc1)NC(=O)[C@H](CCCCN)NC(=O)[C@H](CO)NC(=O)[C@@H](NC(=O)[C@H](CC(=O)O)NC(=O)[C@H](CO)NC(=O)[C@@H](NC(=O)[C@H](Cc1ccccc1)NC(=O)[C@@H](NC(=O)CNC(=O)[C@H](CCC(N)=O)NC(=O)C(C)(C)NC(=O)[C@@H](N)Cc1c[nH]cn1)[C@@H](C)O)[C@@H](C)O)C(C)C)[C@@H](C)O)C(C)C)C(=O)N[C@@H](CC(C)C)C(=O)NC(C)(C)C(=O)N[C@H](C(=O)N[C@@H](CCC(=O)O)C(=O)O)[C@@H](C)O
B6: Peptide 484 (peptide)
peptide: H[Aib]QGTFTSDVSK[αMeF]LDTK([AEEA-AEEA-γGlu-C20 diacid])RAQDFVQWLL[Aib]E-OH
modifications: N-terminus assumed
SMILES: CC(C)C[C@H](NC(=O)[C@H](Cc1c[nH]c2ccccc12)NC(=O)[C@H](CCC(N)=O)NC(=O)[C@@H](NC(=O)[C@H](Cc1ccccc1)NC(=O)[C@H](CC(=O)O)NC(=O)[C@H](CCC(N)=O)NC(=O)[C@H](C)NC(=O)[C@H](CCCNC(=N)N)NC(=O)[C@H](CCCCNC(=O)COCCOCCNC(=O)COCCOCCNC(=O)CC[C@H](NC(=O)CCCCCCCCCCCCCCCCCCC(=O)O)C(=O)O)NC(=O)[C@@H](NC(=O)[C@H](CC(=O)O)NC(=O)[C@H](CC(C)C)NC(=O)[C@](C)(Cc1ccccc1)NC(=O)[C@H](CCCCN)NC(=O)[C@H](CO)NC(=O)[C@@H](NC(=O)[C@H](CC(=O)O)NC(=O)[C@H](CO)NC(=O)[C@@H](NC(=O)[C@H](Cc1ccccc1)NC(=O)[C@@H](NC(=O)CNC(=O)[C@H](CCC(N)=O)NC(=O)C(C)(C)NC(=O)[C@@H](N)Cc1c[nH]cn1)[C@@H](C)O)[C@@H](C)O)C(C)C)[C@@H](C)O)C(C)C)C(=O)N[C@@H](CC(C)C)C(=O)NC(C)(C)C(=O)N[C@@H](CCC(=O)O)C(=O)O
B7: Peptide 485 (peptide)
peptide: H[Aib]QGTFTSDVSK[αMeF]LDTK([AEEA-AEEA-γGlu-C20 diacid])RAQDFVQWLL[Aib]E-NH2
modifications: N-terminus assumed
SMILES: CC(C)C[C@H](NC(=O)[C@H](Cc1c[nH]c2ccccc12)NC(=O)[C@H](CCC(N)=O)NC(=O)[C@@H](NC(=O)[C@H](Cc1ccccc1)NC(=O)[C@H](CC(=O)O)NC(=O)[C@H](CCC(N)=O)NC(=O)[C@H](C)NC(=O)[C@H](CCCNC(=N)N)NC(=O)[C@H](CCCCNC(=O)COCCOCCNC(=O)COCCOCCNC(=O)CC[C@H](NC(=O)CCCCCCCCCCCCCCCCCCC(=O)O)C(=O)O)NC(=O)[C@@H](NC(=O)[C@H](CC(=O)O)NC(=O)[C@H](CC(C)C)NC(=O)[C@](C)(Cc1ccccc1)NC(=O)[C@H](CCCCN)NC(=O)[C@H](CO)NC(=O)[C@@H](NC(=O)[C@H](CC(=O)O)NC(=O)[C@H](CO)NC(=O)[C@@H](NC(=O)[C@H](Cc1ccccc1)NC(=O)[C@@H](NC(=O)CNC(=O)[C@H](CCC(N)=O)NC(=O)C(C)(C)NC(=O)[C@@H](N)Cc1c[nH]cn1)[C@@H](C)O)[C@@H](C)O)C(C)C)[C@@H](C)O)C(C)C)C(=O)N[C@@H](CC(C)C)C(=O)NC(C)(C)C(=O)N[C@@H](CCC(=O)O)C(N)=O

biological target: human glucagon receptor (human, UniProt P47871); assay: cell-based or functional assay

Binder | cAMP production EC50 [nM]
B1 | 0.301
B2 | 0.232
B3 | 0.396
B4 | 0.166
B5 | 0.164
B6 | 0.169
B7 | 0.0904

biological target: human GLP-1 receptor (human, UniProt P43220); assay: cell-based or functional assay

Binder | cAMP production EC50 [nM]
B1 | 0.202
B2 | 0.0736
B3 | 0.069
B4 | 0.42
B5 | 0.0655
B6 | 0.339
B7 | 0.219
